Measurements reported in the Human Domainome abundance scans (Beltran et al. 2025).
± gives the uncertainty stated by the source.

B1: Mineralocorticoid receptor, residues 600 to 675; numbered along this chain, P08235 (parent)
chain: SKICLVCGDEASGCHYGVVTCGSCKVFFKRAVEGQHNYLCAGRNDCIIDKIRRKNCPACRLQKCLQAGMNLGARKS

Variants of: B1
Assay: abundance fitness (aPCA) (normalised: wild type 0, dead -1); higher = more abundant; growth selection in yeast, the domain comes from the species named
Conditions: Homo sapiens

Variant	abundance fitness
SKICLVCGIEASGCHYGVVTCGSCKVFFKRAVEGQHNYLCAGRNDCIIDKIRRKNCPACRLQKCLQAGMNLGARKS [D9I]	-0.168 ± 0.15
SKICLVCGYEASGCHYGVVTCGSCKVFFKRAVEGQHNYLCAGRNDCIIDKIRRKNCPACRLQKCLQAGMNLGARKS [D9Y]	-0.161 ± 0.092
SKICLVCGCEASGCHYGVVTCGSCKVFFKRAVEGQHNYLCAGRNDCIIDKIRRKNCPACRLQKCLQAGMNLGARKS [D9C]	-0.137 ± 0.084
SKICLVCGKEASGCHYGVVTCGSCKVFFKRAVEGQHNYLCAGRNDCIIDKIRRKNCPACRLQKCLQAGMNLGARKS [D9K]	-0.231 ± 0.078
SKICLVCGVEASGCHYGVVTCGSCKVFFKRAVEGQHNYLCAGRNDCIIDKIRRKNCPACRLQKCLQAGMNLGARKS [D9V]	-0.001 ± 0.042
SKICLVCGREASGCHYGVVTCGSCKVFFKRAVEGQHNYLCAGRNDCIIDKIRRKNCPACRLQKCLQAGMNLGARKS [D9R]	-0.183 ± 0.042
SKICLVCGHEASGCHYGVVTCGSCKVFFKRAVEGQHNYLCAGRNDCIIDKIRRKNCPACRLQKCLQAGMNLGARKS [D9H]	-0.04 ± 0.13
SKICLVCGAEASGCHYGVVTCGSCKVFFKRAVEGQHNYLCAGRNDCIIDKIRRKNCPACRLQKCLQAGMNLGARKS [D9A]	0.048 ± 0.049
SKICLVCGTEASGCHYGVVTCGSCKVFFKRAVEGQHNYLCAGRNDCIIDKIRRKNCPACRLQKCLQAGMNLGARKS [D9T]	-0.082 ± 0.058
SKICLVCGFEASGCHYGVVTCGSCKVFFKRAVEGQHNYLCAGRNDCIIDKIRRKNCPACRLQKCLQAGMNLGARKS [D9F]	-0.202 ± 0.1
SKICLVCGLEASGCHYGVVTCGSCKVFFKRAVEGQHNYLCAGRNDCIIDKIRRKNCPACRLQKCLQAGMNLGARKS [D9L]	-0.309 ± 0.05
SKICLVCGEEASGCHYGVVTCGSCKVFFKRAVEGQHNYLCAGRNDCIIDKIRRKNCPACRLQKCLQAGMNLGARKS [D9E]	-0.096 ± 0.056
SKICLVCGNEASGCHYGVVTCGSCKVFFKRAVEGQHNYLCAGRNDCIIDKIRRKNCPACRLQKCLQAGMNLGARKS [D9N]	-0.144 ± 0.1
SKICLVCGGEASGCHYGVVTCGSCKVFFKRAVEGQHNYLCAGRNDCIIDKIRRKNCPACRLQKCLQAGMNLGARKS [D9G]	-0.053 ± 0.042
SKICLVCGWEASGCHYGVVTCGSCKVFFKRAVEGQHNYLCAGRNDCIIDKIRRKNCPACRLQKCLQAGMNLGARKS [D9W]	-0.214 ± 0.05
SKICLVCGQEASGCHYGVVTCGSCKVFFKRAVEGQHNYLCAGRNDCIIDKIRRKNCPACRLQKCLQAGMNLGARKS [D9Q]	-0.092 ± 0.072
SKICLVCGSEASGCHYGVVTCGSCKVFFKRAVEGQHNYLCAGRNDCIIDKIRRKNCPACRLQKCLQAGMNLGARKS [D9S]	-0.102 ± 0.053
SKICLVCGDEAFGCHYGVVTCGSCKVFFKRAVEGQHNYLCAGRNDCIIDKIRRKNCPACRLQKCLQAGMNLGARKS [S12F]	-0.173 ± 0.15
SKICLVCGDEAPGCHYGVVTCGSCKVFFKRAVEGQHNYLCAGRNDCIIDKIRRKNCPACRLQKCLQAGMNLGARKS [S12P]	-0.008 ± 0.067
SKICLVCGDEAVGCHYGVVTCGSCKVFFKRAVEGQHNYLCAGRNDCIIDKIRRKNCPACRLQKCLQAGMNLGARKS [S12V]	-0.106 ± 0.069
SKICLVCGDEAMGCHYGVVTCGSCKVFFKRAVEGQHNYLCAGRNDCIIDKIRRKNCPACRLQKCLQAGMNLGARKS [S12M]	0.071 ± 0.074
SKICLVCGDEACGCHYGVVTCGSCKVFFKRAVEGQHNYLCAGRNDCIIDKIRRKNCPACRLQKCLQAGMNLGARKS [S12C]	-0.142 ± 0.11
SKICLVCGDEARGCHYGVVTCGSCKVFFKRAVEGQHNYLCAGRNDCIIDKIRRKNCPACRLQKCLQAGMNLGARKS [S12R]	0.004 ± 0.072
SKICLVCGDEALGCHYGVVTCGSCKVFFKRAVEGQHNYLCAGRNDCIIDKIRRKNCPACRLQKCLQAGMNLGARKS [S12L]	0.068 ± 0.062

Variant	abundance fitness
SKICLVCGDEAQGCHYGVVTCGSCKVFFKRAVEGQHNYLCAGRNDCIIDKIRRKNCPACRLQKCLQAGMNLGARKS [S12Q]	-0.019 ± 0.095
SKICLVCGDEAKGCHYGVVTCGSCKVFFKRAVEGQHNYLCAGRNDCIIDKIRRKNCPACRLQKCLQAGMNLGARKS [S12K]	-0.124 ± 0.13
SKICLVCGDEAEGCHYGVVTCGSCKVFFKRAVEGQHNYLCAGRNDCIIDKIRRKNCPACRLQKCLQAGMNLGARKS [S12E]	0.103 ± 0.11
SKICLVCGDEADGCHYGVVTCGSCKVFFKRAVEGQHNYLCAGRNDCIIDKIRRKNCPACRLQKCLQAGMNLGARKS [S12D]	-0.238 ± 0.17
SKICLVCGDEAGGCHYGVVTCGSCKVFFKRAVEGQHNYLCAGRNDCIIDKIRRKNCPACRLQKCLQAGMNLGARKS [S12G]	-0.181 ± 0.074
SKICLVCGDEANGCHYGVVTCGSCKVFFKRAVEGQHNYLCAGRNDCIIDKIRRKNCPACRLQKCLQAGMNLGARKS [S12N]	0.205 ± 0.29
SKICLVCGDEAIGCHYGVVTCGSCKVFFKRAVEGQHNYLCAGRNDCIIDKIRRKNCPACRLQKCLQAGMNLGARKS [S12I]	0.043 ± 0.11
SKICLVCGDEAAGCHYGVVTCGSCKVFFKRAVEGQHNYLCAGRNDCIIDKIRRKNCPACRLQKCLQAGMNLGARKS [S12A]	-0.132 ± 0.073
SKICLVCGDEAHGCHYGVVTCGSCKVFFKRAVEGQHNYLCAGRNDCIIDKIRRKNCPACRLQKCLQAGMNLGARKS [S12H]	-0.117 ± 0.14
SKICLVCWDEASGCHYGVVTCGSCKVFFKRAVEGQHNYLCAGRNDCIIDKIRRKNCPACRLQKCLQAGMNLGARKS [G8W]	-0.27 ± 0.069
SKICLVCYDEASGCHYGVVTCGSCKVFFKRAVEGQHNYLCAGRNDCIIDKIRRKNCPACRLQKCLQAGMNLGARKS [G8Y]	-0.248 ± 0.17
SKICLVCGDEDSGCHYGVVTCGSCKVFFKRAVEGQHNYLCAGRNDCIIDKIRRKNCPACRLQKCLQAGMNLGARKS [A11D]	-0.134 ± 0.072
SKICLVCGDELSGCHYGVVTCGSCKVFFKRAVEGQHNYLCAGRNDCIIDKIRRKNCPACRLQKCLQAGMNLGARKS [A11L]	-0.16 ± 0.039
SKICLVCGDEHSGCHYGVVTCGSCKVFFKRAVEGQHNYLCAGRNDCIIDKIRRKNCPACRLQKCLQAGMNLGARKS [A11H]	-0.13 ± 0.082
SKICLVCGDEVSGCHYGVVTCGSCKVFFKRAVEGQHNYLCAGRNDCIIDKIRRKNCPACRLQKCLQAGMNLGARKS [A11V]	-0.222 ± 0.047
SKICLVCGDEMSGCHYGVVTCGSCKVFFKRAVEGQHNYLCAGRNDCIIDKIRRKNCPACRLQKCLQAGMNLGARKS [A11M]	-0.135 ± 0.074
SKICLVCGDEQSGCHYGVVTCGSCKVFFKRAVEGQHNYLCAGRNDCIIDKIRRKNCPACRLQKCLQAGMNLGARKS [A11Q]	-0.037 ± 0.053
SKICLVCGDEWSGCHYGVVTCGSCKVFFKRAVEGQHNYLCAGRNDCIIDKIRRKNCPACRLQKCLQAGMNLGARKS [A11W]	-0.22 ± 0.056
SKICLVCGDETSGCHYGVVTCGSCKVFFKRAVEGQHNYLCAGRNDCIIDKIRRKNCPACRLQKCLQAGMNLGARKS [A11T]	-0.063 ± 0.064
SKICLVCGDERSGCHYGVVTCGSCKVFFKRAVEGQHNYLCAGRNDCIIDKIRRKNCPACRLQKCLQAGMNLGARKS [A11R]	-0.089 ± 0.041
SKICLVCGDECSGCHYGVVTCGSCKVFFKRAVEGQHNYLCAGRNDCIIDKIRRKNCPACRLQKCLQAGMNLGARKS [A11C]	-0.123 ± 0.094
SKICLVCGDEKSGCHYGVVTCGSCKVFFKRAVEGQHNYLCAGRNDCIIDKIRRKNCPACRLQKCLQAGMNLGARKS [A11K]	-0.101 ± 0.06
SKICLVCGDEISGCHYGVVTCGSCKVFFKRAVEGQHNYLCAGRNDCIIDKIRRKNCPACRLQKCLQAGMNLGARKS [A11I]	-0.354 ± 0.14
SKICLVCGDENSGCHYGVVTCGSCKVFFKRAVEGQHNYLCAGRNDCIIDKIRRKNCPACRLQKCLQAGMNLGARKS [A11N]	0.031 ± 0.078

Variant	abundance fitness
SKICLVCGDEFSGCHYGVVTCGSCKVFFKRAVEGQHNYLCAGRNDCIIDKIRRKNCPACRLQKCLQAGMNLGARKS [A11F]	-0.194 ± 0.15
SKICLVCGDEPSGCHYGVVTCGSCKVFFKRAVEGQHNYLCAGRNDCIIDKIRRKNCPACRLQKCLQAGMNLGARKS [A11P]	-0.001 ± 0.054
SKICLVCGDEESGCHYGVVTCGSCKVFFKRAVEGQHNYLCAGRNDCIIDKIRRKNCPACRLQKCLQAGMNLGARKS [A11E]	-0.02 ± 0.057
SKICLVCGDESSGCHYGVVTCGSCKVFFKRAVEGQHNYLCAGRNDCIIDKIRRKNCPACRLQKCLQAGMNLGARKS [A11S]	-0.044 ± 0.044
SKICLVCGDEYSGCHYGVVTCGSCKVFFKRAVEGQHNYLCAGRNDCIIDKIRRKNCPACRLQKCLQAGMNLGARKS [A11Y]	-0.245 ± 0.077
SKICLVCGDEGSGCHYGVVTCGSCKVFFKRAVEGQHNYLCAGRNDCIIDKIRRKNCPACRLQKCLQAGMNLGARKS [A11G]	-0.043 ± 0.039
SKICLVCGDSASGCHYGVVTCGSCKVFFKRAVEGQHNYLCAGRNDCIIDKIRRKNCPACRLQKCLQAGMNLGARKS [E10S]	-0.03 ± 0.047
SKICLVCGDHASGCHYGVVTCGSCKVFFKRAVEGQHNYLCAGRNDCIIDKIRRKNCPACRLQKCLQAGMNLGARKS [E10H]	0.078 ± 0.13
SKICLVCGDKASGCHYGVVTCGSCKVFFKRAVEGQHNYLCAGRNDCIIDKIRRKNCPACRLQKCLQAGMNLGARKS [E10K]	0.016 ± 0.057
SKICLVCGDTASGCHYGVVTCGSCKVFFKRAVEGQHNYLCAGRNDCIIDKIRRKNCPACRLQKCLQAGMNLGARKS [E10T]	-0.032 ± 0.056
SKICLVCGDYASGCHYGVVTCGSCKVFFKRAVEGQHNYLCAGRNDCIIDKIRRKNCPACRLQKCLQAGMNLGARKS [E10Y]	-0.105 ± 0.071
SKICLVCGDIASGCHYGVVTCGSCKVFFKRAVEGQHNYLCAGRNDCIIDKIRRKNCPACRLQKCLQAGMNLGARKS [E10I]	-0.188 ± 0.093
SKICLVCGDGASGCHYGVVTCGSCKVFFKRAVEGQHNYLCAGRNDCIIDKIRRKNCPACRLQKCLQAGMNLGARKS [E10G]	0.043 ± 0.04
SKICLVCGDDASGCHYGVVTCGSCKVFFKRAVEGQHNYLCAGRNDCIIDKIRRKNCPACRLQKCLQAGMNLGARKS [E10D]	-0.018 ± 0.082
SKICLVCGDPASGCHYGVVTCGSCKVFFKRAVEGQHNYLCAGRNDCIIDKIRRKNCPACRLQKCLQAGMNLGARKS [E10P]	-0.108 ± 0.071
SKICLVCGDVASGCHYGVVTCGSCKVFFKRAVEGQHNYLCAGRNDCIIDKIRRKNCPACRLQKCLQAGMNLGARKS [E10V]	-0.04 ± 0.044
SKICLVCGDRASGCHYGVVTCGSCKVFFKRAVEGQHNYLCAGRNDCIIDKIRRKNCPACRLQKCLQAGMNLGARKS [E10R]	-0.1 ± 0.044
SKICLVCGDNASGCHYGVVTCGSCKVFFKRAVEGQHNYLCAGRNDCIIDKIRRKNCPACRLQKCLQAGMNLGARKS [E10N]	-0.04 ± 0.12
SKICLVCGDWASGCHYGVVTCGSCKVFFKRAVEGQHNYLCAGRNDCIIDKIRRKNCPACRLQKCLQAGMNLGARKS [E10W]	-0.012 ± 0.045
SKICLVCGDQASGCHYGVVTCGSCKVFFKRAVEGQHNYLCAGRNDCIIDKIRRKNCPACRLQKCLQAGMNLGARKS [E10Q]	0.071 ± 0.054
SKICLVCGDCASGCHYGVVTCGSCKVFFKRAVEGQHNYLCAGRNDCIIDKIRRKNCPACRLQKCLQAGMNLGARKS [E10C]	-0.221 ± 0.083
SKICLVCGDMASGCHYGVVTCGSCKVFFKRAVEGQHNYLCAGRNDCIIDKIRRKNCPACRLQKCLQAGMNLGARKS [E10M]	-0.177 ± 0.07
SKICLVCGDLASGCHYGVVTCGSCKVFFKRAVEGQHNYLCAGRNDCIIDKIRRKNCPACRLQKCLQAGMNLGARKS [E10L]	-0.028 ± 0.043
SKICLVCGDAASGCHYGVVTCGSCKVFFKRAVEGQHNYLCAGRNDCIIDKIRRKNCPACRLQKCLQAGMNLGARKS [E10A]	-0.063 ± 0.045
